In PMC2928128 (Human Molecular Genetics, 2010) one finds Kd data, which are given here for 4 molecules.

First the molecules themselves.
B1: GST-CDH23 + exon68 (cytoplasmic region of cadherin-23 including the exon68-encoded sequence, residues 847-1114) (domain or fragment)
chain: NWYYRTVHKRKLKAIVAGSAGNRGFIDIMDMPNTNKYSFDGANPVWLDPFCRNLELAAQAEHEDDLPENLSEIADLWNSPTRTHGTFGREPAAVKPDDDRYLRAAIQEYDNIAKLGQIIREGPIKGSLLKVVLEDYLRLKKLFAQRMVQKASSCHSSISELIQTELDEEPGDHSPGQGSLRFRHKPPVELKGPDGIHVVHGSTGTLLATDLNSLPEEDQKGLGRSLETLTAAEATAFERNARTESAKSTPLHKLRDVIMETPLEITEL
B2: full-length harmonin-a (natural protein)
chain: MDRKVAREFRHKVDFLIENDAEKDYLYDVLRMYHQTMDVAVLVGDLKLVINEPNRLPLFDAIRPLIPLKHQVEYDQLTPRRSRKLKEVRLDRLHPEGLGLSVRGGLEFGCGLFISHLIKGGQADSVGLQVGDEIVRINGYSISSCTHEEVINLIRTKKTVSIKVRHIGLIPVKSSPEESLKWQYVDQFVSESGGVRGGLGSPGNRTTKEKKVFISLVGSRGLGCSISSGPIQKPGIFVSHVKPGSLSAEVGLETGDQIVEVNGIDFTNLDHKEAVNVLKSSRSLTISIVAGAGRELFMTDRERLEEARQRELQRQELLMQKRLAMESNKILQEQQEMERQRRKEIAQKAAEENERYRKEMEQISEEEEKFKKQWEEDWGSKEQLILPKTITAEVHPVPLRKPKYDQGVEPADHLDGSTEEQRQQDFRKYEEGFDPYSMFSPEQIAGKDVRLLRIKKEGSLDLALEGGVDSPVGKVVVSAVYEGGAAERHGGVVKGDEIMAINGKIVTDYTLAEAEAALQKAWNQGGDWIDLVVAVCPPKEYDDEL
B3: GST-CDH23 + exon68ΔITEL (residues 847-1110) (domain or fragment)
chain: NWYYRTVHKRKLKAIVAGSAGNRGFIDIMDMPNTNKYSFDGANPVWLDPFCRNLELAAQAEHEDDLPENLSEIADLWNSPTRTHGTFGREPAAVKPDDDRYLRAAIQEYDNIAKLGQIIREGPIKGSLLKVVLEDYLRLKKLFAQRMVQKASSCHSSISELIQTELDEEPGDHSPGQGSLRFRHKPPVELKGPDGIHVVHGSTGTLLATDLNSLPEEDQKGLGRSLETLTAAEATAFERNARTESAKSTPLHKLRDVIMETPLE
B4: GST-CDH23Δexon68 (cytoplasmic region of cadherin-23 lacking the exon68-encoded sequence, residues 847-1079) (domain or fragment)
chain: NWYYRTVHKRKLKAIVAGSAGNRGFIDIMDMPNTNKYSFDGANPVWLDPFCRNLELAAQAEHEDDLPENLSEIADLWNSPTRTHGTFGREPAAVKPDDDRYLRAAIQEYDNIAKLGQIIREGPIKLIQTELDEEPGDHSPGQGSLRFRHKPPVELKGPDGIHVVHGSTGTLLATDLNSLPEEDQKGLGRSLETLTAAEATAFERNARTESAKSTPLHKLRDVIMETPLEITEL

Assay in all cases: SPR
The target of assay [1] is T1, harmonin-a Nter-PDZ1 fragment (residues 1-203) (UniProt Q9ES64 1-203).
T1 sequence (looked up): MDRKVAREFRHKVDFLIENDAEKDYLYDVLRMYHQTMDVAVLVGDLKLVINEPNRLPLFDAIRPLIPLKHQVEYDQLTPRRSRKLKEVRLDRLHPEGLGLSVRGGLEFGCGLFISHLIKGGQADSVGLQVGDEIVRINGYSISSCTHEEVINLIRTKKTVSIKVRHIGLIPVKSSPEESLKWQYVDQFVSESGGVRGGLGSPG

The target of assay [2] is T2, harmonin-a Nter domain (residues 1-79) (UniProt Q9ES64 1-79).
T2 sequence (looked up): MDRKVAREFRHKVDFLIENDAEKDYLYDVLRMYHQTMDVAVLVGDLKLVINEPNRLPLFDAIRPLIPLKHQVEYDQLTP

Assay [3] has as its target T3, harmonin-a Nter-PDZ1-PDZ2 fragment (residues 1-299) (UniProt Q9ES64 1-299).
T3 sequence (looked up): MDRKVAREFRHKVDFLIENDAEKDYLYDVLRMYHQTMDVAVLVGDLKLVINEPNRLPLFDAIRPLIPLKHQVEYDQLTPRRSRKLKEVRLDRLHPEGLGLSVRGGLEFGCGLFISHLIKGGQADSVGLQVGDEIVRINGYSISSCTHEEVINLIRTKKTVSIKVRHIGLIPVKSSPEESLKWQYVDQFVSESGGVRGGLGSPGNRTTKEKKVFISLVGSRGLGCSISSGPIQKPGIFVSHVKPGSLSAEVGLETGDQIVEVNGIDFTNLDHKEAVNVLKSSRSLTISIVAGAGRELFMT

The target in assay [4] is B4.
The target of assay [5] is B3.
The target of assay [6] is B1.
The target in assay [7] is GST-CDH23Δexon68ΔITEL (residues 847-1075).

Take B1: the Kd in assay [1] is 94 ± 8 nM; in assay [2] it was above 5000 nM; in assay [3], 64 ± 6 nM.
As for B2, the equilibrium dissociation constant (Kd) worked out at 79 ± 11 nM in assay [4], 127 ± 12 nM in assay [5], 97 ± 14 nM in assay [6] and 48 ± 6 nM in assay [7].
Turning to B3, the Kd in assay [1] was 106 ± 5 nM; in assay [2], above 5000 nM; in assay [3], 66 ± 13 nM.
On to B4, for which the Kd was 79 ± 10 nM in assay [1], above 5000 nM in assay [2] and 42 ± 11 nM in assay [3].
